Source: US20210187071A1, “COMPOSITIONS COMPRISING MDA-7/IL-24 PROTEIN AND METHODS OF USE” (VIRGINIA COMMONWEALTH UNIVERSITY, priority 2017, published 2021)
Entries after “also recorded” stand apart in the source; their conditions may differ.

Experiments:
p27, GRP78, and Beclin-1 = test: Western blotting of downstream MDA-7/IL-24 signaling molecules in PC3-ML cells; type: cell-based; settings: western blot, vs untreated control
Description: Western Blotting: Standard protocols were followed for Western blotting assays (24, 27). The primary antibodies used were pAkt, Akt, pGSK3β, GSK3β, NFATc1, cyclin D1 (Cell Signaling Technology, Danvers, Mass., USA) and EF1α (Abeam, Cambridge, United Kingdom). Appropriate secondary antibodies were purchased from Sigma-Aldrich, Inc. St. Louis, Mo., USA).
After purification, the quality of the purified protein was confirmed using anti-MDA-7 antibody by western blotting (FIG. 1B). To confirm biological activity, PC3-ML cells were treated with MDA-7/IL-24 protein, and anti-proliferative and potential molecular changes were evaluated by MTT assays and western blotting analyses, respectively (FIGS. 1C and 1D). […] Next, to evaluate the long-term effect of MDA-7/IL-24 on cell proliferation, colony formation (clonal) assays were performed in an assortment of PC cell lines.

PC3-ML^Akt = test: Experimental bone metastasis model with PC3-ML cells over expressing constitutively active Akt; type: in vivo, male athymic nude mice; settings: MDA-7/IL-24 protein 5 mg/kg tail vein, 6 doses over three weeks
Description: To evaluate the role of Akt in vivo, metastatic PC3-ML cells and PC3-ML cells over expressing constitutively active Akt (PC3-MI/**) (FIG. 5A) carrying firefly luciferase were injected into male athymic nude mice through the intracardiac route. Clone 1 was used for the in vivo studies, which was validated for expression of Akt downstream pathway gene expression by western blotting (FIG. 14). Proliferation, invasion, and migration of the tumor cells were monitored by IVIS® imaging. […] The Akt overexpressing PC3-ML cells were more metastatic than the control PC3-ML cells. […] These observations illustrate the significance of Akt in PC-mediated bone metastasis development, which can be partially abrogated by MDA-7/IL-24-treatment (FIG. 5B). […] To investigate osteoclastic differentiation in these animals, bone marrow cells were isolated after completion of the study. Osteoclast differentiation was induced as described above. […] Osteoclast differentiation assays further illustrated the importance of Akt in PC-mediated bone metastasis (FIGS. 5D and 5E). A schematic representation of the proposed role of MDA-7/IL-24 protein in PC-mediated bone metastasis through modulation of the bone microenvironment is presented in FIG. 6. […]

bone marrow cells [1] = test: In vitro RANKL-induced osteoclast differentiation of primary bone marrow cells; type: cell-based, athymic nude mice; settings: RANKL induction 5 days, 10 μg/mL MDA-7/IL-24 protein
Description: (§1) Osteoclast Formation Assays: Bone marrow cells were induced for osteoclast differentiation using previously described protocols (28). Briefly, bone marrow cells were cultured in minimal essential medium (α-MEM) with 10% fetal bovine serum with MCSF (10 ng/ml) for 24 hrs. They were subsequently treated with RANKL (100 ng/ml) for 5 days. Cultured cells were fixed and stained for TRAP (Tartarate-resistant acid phosphatase). TRAP staining was performed following the specific protocol provided with the kit (Sigma-Aldrich, Inc. St. Louis, Mo., USA). Multinucleated cells, considered as differentiated osteoclasts, were counted manually under bright field microscope. TRACP enzymatic assays were done as per the manufacturer's instructions (R & D, Minneapolis, Minn., USA).
To investigate the effect of MDA-7/IL-24 on osteoclast differentiation, bone marrow cells from athymic nude mice were isolated and induced to differentiate with RANKL in the presence or absence of MDA-7/IL-24 protein. Five days after induction with RANKL, osteoclast differentiation was measured by counting multinucleated cells. Cells positively stained for TRAP and multinucleated cells were quantified under a light microscope (FIG. 9A). […] To provide molecular insights into this inhibitory effect, we used a mouse macrophage cell line RAW 264.7, which can be induced to differentiate into osteoclasts when incubated with RANKL (32). Using RAW 264.7 cells, different genetic markers associated with osteoclastic differentiation were monitored (33). RAW 264.7 cells were treated with RANKL or MDA-7/IL-24 alone and in combination. RNA was isolated after 5 days of treatment and real time PCR quantified expression of TRAP, Cathepsin K (CTSK), and Calcitonin Receptor (CTR) genes. RANKL induced the expression of TRAP, CTSK and CTR gene expression. […] MTT assays were performed to determine if MDA-7/IL-24 caused any growth suppression in this cell line. Proliferation of RAW 264.7 was not affected by MDA-7/IL-24, further illustrating the tumor-specificity of this cytokine (FIG. 10B). DU-145 (PC) cells were used as a positive control (FIG. 10C).

[2] = tested on: TRAP, Cathepsin K (CTSK), and Calcitonin Receptor (CTR) genes; test: RQ-PCR of osteoclastic genes in RAW 264.7 cells; type: cell-based, mouse; settings: 5 days, MDA-7/IL-24 protein 10 μg/mL, RANKL 100 ng/mL
Description: Real Time q-PCR: Total RNA was isolated from cells with the RNA isolation kit from Qiagen (Valencia, Calif., USA). RQ-PCR was performed using TaqMan probes and master mix from Applied Biosystems (Foster City, Calif., USA). Data were analyzed using the graph pad prism software.
To investigate the effect of MDA-7/IL-24 on osteoclast differentiation, bone marrow cells from athymic nude mice were isolated and induced to differentiate with RANKL in the presence or absence of MDA-7/IL-24 protein. Five days after induction with RANKL, osteoclast differentiation was measured by counting multinucleated cells. Cells positively stained for TRAP and multinucleated cells were quantified under a light microscope (FIG. 9A). […] To provide molecular insights into this inhibitory effect, we used a mouse macrophage cell line RAW 264.7, which can be induced to differentiate into osteoclasts when incubated with RANKL (32). Using RAW 264.7 cells, different genetic markers associated with osteoclastic differentiation were monitored (33). RAW 264.7 cells were treated with RANKL or MDA-7/IL-24 alone and in combination. RNA was isolated after 5 days of treatment and real time PCR quantified expression of TRAP, Cathepsin K (CTSK), and Calcitonin Receptor (CTR) genes. RANKL induced the expression of TRAP, CTSK and CTR gene expression. […]

bone marrow cells [3] = test: Osteoclast differentiation of bone marrow from animals injected with elevated Akt-stable expression cells; type: in vivo, mice; settings: MDA-7/IL-24 protein 5 mg/kg, 6 doses; differentiation induced ex vivo
Description: as §1
To evaluate the role of Akt in vivo, metastatic PC3-ML cells and PC3-ML cells over expressing constitutively active Akt (PC3-MI/**) (FIG. 5A) carrying firefly luciferase were injected into male athymic nude mice through the intracardiac route. Clone 1 was used for the in vivo studies, which was validated for expression of Akt downstream pathway gene expression by western blotting (FIG. 14). Proliferation, invasion, and migration of the tumor cells were monitored by IVIS® imaging. […] The Akt overexpressing PC3-ML cells were more metastatic than the control PC3-ML cells. […]

[4] = tested on: immortalized normal primary human prostate epithelial cells (RWPE-1); test: Colony formation (clonal) assay in RWPE-1 cells; type: cell-based; settings: 200 cells plated, colonies counted 2 weeks after treatment
Description: (§2) MTT Cell Proliferation and Clonal Assays: Cell proliferation assays were done as described previously (25). Briefly, 2,000 cells were seeded in each well of a 96-well plate and allowed to attach overnight. Cells were treated with complete media in the presence or absence of different concentrations of MDA-7/IL-24 protein. At appropriate time points, cells were further incubated with MTT (3-(4, 5-di methyl thiazol-2-yl)-2, 5 diphenyl tetrazolium bromide) reagents. Finally, DMSO was applied to dissolve the blue salt and the OD was measured at 560 nm (25). For determining long-term effects, colony formation (cloning) assays were performed as described earlier (26). Briefly, 200 cells were plated and allowed to grow in the presence or absence of MDA-7/IL-24 for an additional 15 days. Culture media was replaced with fresh media containing MDA-7/IL-24 protein once a week, two times in total.

PC cells = test: Colony formation (clonal) assay in PC cell lines; type: cell-based; settings: 200 cells plated, colonies counted 2 weeks after treatment
Description: as §2

B1: MDA-7/IL-24 protein: Recombinant His-tagged MDA-7/IL-24 protein purified on Ni-NTA from supernatant of IM-PHFA cells infected with Ad.5-His-mda-7 (protein)
chain: QEFHFGPCQVKGVVPQKLWEAFWAVKDTMQAQDNITSARLLQQEVLQNVSDAESCYLVHTLLEFYLKTVFKNYHNRTVEVRTLKSFSTLANNFVLIVSQLQPSQENEMFSIRDSAHRRFLLFRRAFKQLDVEAALTKALGEVDILLTWMQKFYKL
Question: B1 was tested. Which “levels of p27, GRP78, and Beclin-1” value (p27, GRP78, and Beclin-1) did it give?
Answer: Significant increases; also recorded: up-regulation of expression

Question: What about the “bone metastasis by PC3-ML^Akt cells” value (PC3-ML^Akt) of the same molecule?
Answer: diminished the inhibitory effects

Question: And the “bone metastasis by PC3-ML^Akt cells” value (PC3-ML^Akt; listed as MDA-7/IL-24)?
Answer: inhibited metastasis

Question: What about the “number of osteoclasts (osteoclast differentiation)” value (bone marrow cells [1]; listed as His-MDA-7) of the same molecule?
Answer: decreased significantly

Question: What about the “osteoclast activity (TRACP enzymatic activity)” value (bone marrow cells [1]; listed as His-MDA-7) of the same molecule?
Answer: significantly less

Question: And the “number of osteoclasts (osteoclast differentiation)” value (bone marrow cells [1]; listed as MDA-7/IL-24)?
Answer: significantly reduced; also recorded: reduced osteoclast differentiation

Question: And the “osteoclast activity (TRACP enzymatic activity)” value (bone marrow cells [1]; listed as MDA-7/IL-24)?
Answer: significantly reduced

Question: And the “RANKL-induced TRAP, CTSK and CTR gene expression” value [2]?
Answer: attenuated RANKL-induced regulation of these genes

Question: What about the “osteoclastic activity of bone marrow from animals with Akt overexpressing cells” value (bone marrow cells [3]) of the same molecule?
Answer: decreased

Question: What about the “proliferation capacity of RWPE-1 (colony formation)” value [4] of the same molecule?
Answer: without affecting the proliferation capacity

Question: What about the “proliferation of PC cells (colony formation)” value (PC cells) of the same molecule?
Answer: significantly reduced the proliferation of PC cells
